Laboratory results: patent US20250297282A1

Biological target: GFP-encoding lentiviral particles

Work on “StrepTactin Superflow column (0.2 mL resin bed, 3 mg binding capacity per mL; IBA Lifesciences GmbH)” yielded a GFP+ cells (gate over CD8- and CD8+ cells) among T cells five days after transduction with the biotin elution fraction of the column without VBP (-VB), by flow cytometry of 0.069%.
